Target: T1, human GPRC5D (human, UniProt Q9NZD1 1-345)
T1 construct: whole, on cells; also called hGPRC5D; G-protein coupled receptor family C group 5 member D
Assay: flow cytometry on KHM-1B cells (human GPRC5D), culture supernatant, PE anti-human IgG Fc, rMFI over human IgG isotype control
Method: Human multiple myeloma cell line KHM-1B cells expressing GPRC5D were adjusted to a concentration of 2×10⁶ cells/mL with PBS containing 5% FBS, inoculated in an amount of 100 μL/well to a 96-well U-bottomed microplate, and centrifuged to remove a supernatant. The culture supernatant of each humanized anti-GPRC5D antibody obtained in Example 8)-3-1 or Human IgG isotype control antibody (Calbiochem/Merck Millipore Corp.) adjusted to 14 ng/mL to 30 μg/mL was added thereto in an amount of 100 μL/well, and the plate was left standing at 4° C. for 1 hour. The cells were washed twice with PBS containing 5% FBS. Then, R-Phycoerythrin AffiniPure F(ab′)2 Fragment Goat Anti-Human IgG, Fcγ Fragment Specific (Jackson ImmunoResearch Laboratories, Inc.) diluted 100-fold with PBS containing 5% FBS was added thereto in an amount of 100 μL/well, and the plate was left standing at 4° C. for 1 hour. The cells were washed twice with PBS containing 5% FBS and then resuspended in PBS containing 5% FBS, followed by detection using a flow cytometer (FACSCanto™ II; Becton, Dickinson and Company). The data was analyzed using Flowjo (Tree Star, Inc.). The PE fluorescence intensity of the cell fraction was plotted to a histogram, and the mean fluorescence intensity (MFI) was calculated. The MFI value of the control antibody was subtracted from the MFI value of the GPRC5D antibody to calculate a relative value of MFI (rMFI).

T1 sequence (Q9NZD1 whole entry): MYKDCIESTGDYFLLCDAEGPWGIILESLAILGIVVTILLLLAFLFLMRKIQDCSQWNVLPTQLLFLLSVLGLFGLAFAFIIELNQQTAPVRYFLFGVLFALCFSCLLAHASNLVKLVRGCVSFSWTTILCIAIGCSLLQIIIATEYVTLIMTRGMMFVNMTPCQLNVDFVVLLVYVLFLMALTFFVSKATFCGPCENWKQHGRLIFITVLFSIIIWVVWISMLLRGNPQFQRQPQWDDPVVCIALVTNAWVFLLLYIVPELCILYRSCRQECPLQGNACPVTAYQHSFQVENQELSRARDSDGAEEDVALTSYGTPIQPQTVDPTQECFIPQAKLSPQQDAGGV

Row | binding result | Binder
1 | binds | humanized anti-GPRC5D antibody h2B1_H2/L3 (antibody, human IgG1, kappa, V domains shown, Human IgG1 / kappa) VH: QVQLVESGGGLVKPSQTLSLTCTFSGFSLNTYDMGVGWIRQPPGKGLEWIGNIWWDDDKYYNPSLKSRVTISKDTSNNQASLKLSSVTAADTAVYYCARIETVRVSRKGFAHWGQGTLVTVSS VL: DTVMTQSPDSLAVSLGERATINCKASQSVGINVDWYQQKPGQPPKLLIYGASNRHTGVPDRFSGSGFGRDFTLTISSLQAEDVAVYYCLQHGSIPPTFGQGTKVEIKR
2 | binds | humanized anti-GPRC5D antibody h2B1_H2/L5 (antibody, human IgG1, kappa, V domains shown, Human IgG1 / kappa) VH: QVQLVESGGGLVKPSQTLSLTCTFSGFSLNTYDMGVGWIRQPPGKGLEWIGNIWWDDDKYYNPSLKSRVTISKDTSNNQASLKLSSVTAADTAVYYCARIETVRVSRKGFAHWGQGTLVTVSS VL: ATRMTQSPSSFSASTGDRVTITCKASQSVGINVDWYQQKPGKSPKLLIYGASNRHTGVPSRFSGSGFGRDFTLTISSLQSEDFATYYCLQHGSIPPTFGGGTKVEIKR
3 | binds | humanized anti-GPRC5D antibody h2B1_H4/L3 (antibody, human IgG1, kappa, V domains shown, Human IgG1 / kappa) VH: QVTLKESGPALVKPTQTLTLTCTFSGFSLNTYDMGVGWIRQPPGKGLEWLANIWWDDDKYYSPSLKSRLTITKDTSNNQAVLTMTNMDPVDTATYYCARIETVRVSRKGFAHWGQGTLVTVSS VL: DTVMTQSPDSLAVSLGERATINCKASQSVGINVDWYQQKPGQPPKLLIYGASNRHTGVPDRFSGSGFGRDFTLTISSLQAEDVAVYYCLQHGSIPPTFGQGTKVEIKR
4 | binds | humanized anti-GPRC5D antibody h2B1_H1/L1 (antibody, human IgG1, kappa, V domains shown, Human IgG1 / kappa) VH: QVQLVESGGGLVKPSQTLSLTCTFSGFSLNTYDMGVGWIRQPPGKGLEWIGNIWWDDDKYYNPSLKSRVTISVDTSKNQASLKLSSVTAADTAVYYCARIETVRVSRKGFAHWGQGTLVTVSS VL: DTVMTQSPDSLAVSLGERATINCKASQSVGINVDWYQQKPGQPPKLLIYGASNRHTGVPDRFSGSGSGRDFTLTISSLQAEDVAVYYCLQHGSIPPTFGQGTKVEIKR
5 | binds | humanized anti-GPRC5D antibody h2B1_H4/L4 (antibody, human IgG1, kappa, V domains shown, Human IgG1 / kappa) VH: QVTLKESGPALVKPTQTLTLTCTFSGFSLNTYDMGVGWIRQPPGKGLEWLANIWWDDDKYYSPSLKSRLTITKDTSNNQAVLTMTNMDPVDTATYYCARIETVRVSRKGFAHWGQGTLVTVSS VL: DTVMTQSPDSLAVSLGERATINCKASQSVGINVDWYQQKPGQSPKLLIYGASNRHTGVPDRFSGSGFGRDFTLTISSLQAEDVAVYYCLQHGSIPPTFGQGTKVEIKR
6 | binds | humanized anti-GPRC5D antibody h2B1_H2/L4 (antibody, human IgG1, kappa, V domains shown, Human IgG1 / kappa) VH: QVQLVESGGGLVKPSQTLSLTCTFSGFSLNTYDMGVGWIRQPPGKGLEWIGNIWWDDDKYYNPSLKSRVTISKDTSNNQASLKLSSVTAADTAVYYCARIETVRVSRKGFAHWGQGTLVTVSS VL: DTVMTQSPDSLAVSLGERATINCKASQSVGINVDWYQQKPGQSPKLLIYGASNRHTGVPDRFSGSGFGRDFTLTISSLQAEDVAVYYCLQHGSIPPTFGQGTKVEIKR
7 | binds | humanized anti-GPRC5D antibody h2B1_H3/L5 (antibody, human IgG1, kappa, V domains shown, Human IgG1 / kappa) VH: QVQLVESGGGLVKPSQTLSLTCTFSGFSLNTYDMGVGWIRQPPGKGLEWIANIWWDDDKYYNPSLKSRVTISKDTSNNQASLKLSSVTAADTAVYYCARIETVRVSRKGFAHWGQGTLVTVSS VL: ATRMTQSPSSFSASTGDRVTITCKASQSVGINVDWYQQKPGKSPKLLIYGASNRHTGVPSRFSGSGFGRDFTLTISSLQSEDFATYYCLQHGSIPPTFGGGTKVEIKR
8 | binds | humanized anti-GPRC5D antibody h2B1_H4/L1 (antibody, human IgG1, kappa, V domains shown, Human IgG1 / kappa) VH: QVTLKESGPALVKPTQTLTLTCTFSGFSLNTYDMGVGWIRQPPGKGLEWLANIWWDDDKYYSPSLKSRLTITKDTSNNQAVLTMTNMDPVDTATYYCARIETVRVSRKGFAHWGQGTLVTVSS VL: DTVMTQSPDSLAVSLGERATINCKASQSVGINVDWYQQKPGQPPKLLIYGASNRHTGVPDRFSGSGSGRDFTLTISSLQAEDVAVYYCLQHGSIPPTFGQGTKVEIKR
9 | binds | humanized anti-GPRC5D antibody h2B1_H3/L4 (antibody, human IgG1, kappa, V domains shown, Human IgG1 / kappa) VH: QVQLVESGGGLVKPSQTLSLTCTFSGFSLNTYDMGVGWIRQPPGKGLEWIANIWWDDDKYYNPSLKSRVTISKDTSNNQASLKLSSVTAADTAVYYCARIETVRVSRKGFAHWGQGTLVTVSS VL: DTVMTQSPDSLAVSLGERATINCKASQSVGINVDWYQQKPGQSPKLLIYGASNRHTGVPDRFSGSGFGRDFTLTISSLQAEDVAVYYCLQHGSIPPTFGQGTKVEIKR
10 | binds | humanized anti-GPRC5D antibody h2B1_H3/L3 (antibody, human IgG1, kappa, V domains shown, Human IgG1 / kappa) VH: QVQLVESGGGLVKPSQTLSLTCTFSGFSLNTYDMGVGWIRQPPGKGLEWIANIWWDDDKYYNPSLKSRVTISKDTSNNQASLKLSSVTAADTAVYYCARIETVRVSRKGFAHWGQGTLVTVSS VL: DTVMTQSPDSLAVSLGERATINCKASQSVGINVDWYQQKPGQPPKLLIYGASNRHTGVPDRFSGSGFGRDFTLTISSLQAEDVAVYYCLQHGSIPPTFGQGTKVEIKR
11 | binds | humanized anti-GPRC5D antibody h2B1_H2/L2 (antibody, human IgG1, kappa, V domains shown, Human IgG1 / kappa) VH: QVQLVESGGGLVKPSQTLSLTCTFSGFSLNTYDMGVGWIRQPPGKGLEWIGNIWWDDDKYYNPSLKSRVTISKDTSNNQASLKLSSVTAADTAVYYCARIETVRVSRKGFAHWGQGTLVTVSS VL: DTVMTQSPDSLAVSLGERATINCKASQSVGINVDWYQQKPGQPPKLLIYGASNRHTGVPDRFSGSGFGTDFTLTISSLQAEDVAVYYCLQHGSIPPTFGQGTKVEIKR
12 | binds | humanized anti-GPRC5D antibody h2B1_H4/L5 (antibody, human IgG1, kappa, V domains shown, Human IgG1 / kappa) VH: QVTLKESGPALVKPTQTLTLTCTFSGFSLNTYDMGVGWIRQPPGKGLEWLANIWWDDDKYYSPSLKSRLTITKDTSNNQAVLTMTNMDPVDTATYYCARIETVRVSRKGFAHWGQGTLVTVSS VL: ATRMTQSPSSFSASTGDRVTITCKASQSVGINVDWYQQKPGKSPKLLIYGASNRHTGVPSRFSGSGFGRDFTLTISSLQSEDFATYYCLQHGSIPPTFGGGTKVEIKR

Target: T1, human GPRC5D
Assay: flow cytometry on A4/Fuk cells (endogenous human GPRC5D), Penta-His Alexa Fluor 488 detection, rMFI = MFI minus sample without antibody
Method: Lymphoma cell line A4/Fuk cells (JCRB Cell Bank) were adjusted to an appropriate concentration with PBS containing 5% FBS. LIVE/DEAD Fixable Near-IR Dead Cell Stain Kit was added to the cells, which were then left standing at 4° C. for 30 minutes. The cells were washed twice with PBS containing 5% FBS, then adjusted to a concentration of 1×10⁶ cells/mL with PBS containing 5% FBS, inoculated in an amount of 100 μL/well to a 96-well U-bottomed microplate, and centrifuged to remove a supernatant. Each anti-GPRC5D-anti-CD3 bispecific molecule (C2037-C3E7034 to C3022-C3E7036 prepared in Example 12) diluted with PBS containing 5% FBS were added thereto in an amount of 100 μL/well, and the plate was left standing at 4° C. for 60 minutes. The cells were washed twice with PBS containing 5% FBS. Then, Penta-His Alexa Fluor 488 diluted with PBS containing 5% FBS was added thereto in an amount of 30 μL/well, and the plate was left standing at 4° C. for 30 minutes. The cells were washed twice with PBS containing 5% FBS and then resuspended in PBS containing 5% FBS, followed by detection using a flow cytometer (FACSCanto™ II). The data was analyzed using Flowjo. The mean fluorescence intensity (MFI) of Alexa Fluor 488 in a fraction free from dead cells was calculated. The MFI value of the antibody-unsupplemented sample was subtracted from the MFI value of the antibody-supplemented sample to calculate a relative value of MFI (rMFI).

Row | binding result | Binder
13 | binds | anti-GPRC5D-anti-CD3 bispecific molecule C3022-C3E7035 (bispecific antibody, Tandem scFv) scFv: GQVQLVQSGAEVKKPGASVKVSCKASGYTFTGYYMHWVRQAPGQGLEWMGRINPNSGGTNYAQKFQGRVTMTRDTSISTAYMELSGLRSDDTAVYYCASGSVRHPWGQGTLVTVSSGGGGSGGGGSGGGGSQPVLTQPPSASGTPGQRVTISCSGSRSNIGGNIVSWYQQFPGTAPRLLTYADNQRPSGVPDRFSGSKSGTSASLAISGLQSEDEADYYCAAWDDSLNGVVFGGGTKLTVLGGGGSEVQLVESGGGLVQPGGSLRLSCAASGVTFNYYGMSWIRQAPGKGLEWVASITNSGGRIYYPDSVKGRFTISRENTQKTLYLQMNSLRAEDTAVYYCTLDGRDGWVAYWGQGTLVTVSSGGGGSGGGGSGGGGSMAQAVLTQPSSVSGVPGQRVTISCKRNTGNIGSNYVNWYQQLPGTAPKLLIYRDDKRPSGVPDRFSGSKSGTSASLAITGFQAEDEADYYCQSYSSGFIFGGGTKLTVLGAAAGAGGDYKDDDDKGAAAHHHHHH
14 | binds | anti-GPRC5D-anti-CD3 bispecific molecule C3048-C3E7035 (bispecific antibody, Tandem scFv) scFv: GQVQLVQSGAEVKKPGSSVKVSCKASGGTFSRYAISWVRQAPGQGLEWMGGIIPIFGTANYAQKFQGRVTITADQSTRTAYMDLGRLRSEDTAVYYCALEGFRDSLKRNPFDIWGQGTMVTVSSGGGGSGGGGSGGGGSQSVVTQPPSVSAAPGQKVTISCSGGTTNIGSNYVSWYQQLPGTAPKFLMYENNKRPSGIPDRFSGSKSGTSATLAITGLQTGDEATYYCSTWDSSLNTGLFGGGTKLTVLGGGGSEVQLVESGGGLVQPGGSLRLSCAASGVTFNYYGMSWIRQAPGKGLEWVASITNSGGRIYYPDSVKGRFTISRENTQKTLYLQMNSLRAEDTAVYYCTLDGRDGWVAYWGQGTLVTVSSGGGGSGGGGSGGGGSMAQAVLTQPSSVSGVPGQRVTISCKRNTGNIGSNYVNWYQQLPGTAPKLLIYRDDKRPSGVPDRFSGSKSGTSASLAITGFQAEDEADYYCQSYSSGFIFGGGTKLTVLGAAAGAGGDYKDDDDKGAAAHHHHHH

— patent US20190367612A1 (Daiichi Sankyo, published 2019)
